This note sets out measurements from the nanobody polyreactivity screen of Harvey et al. (2022).

The data set in a line: yeast display, Sf9 membrane polyspecificity reagent, FACS + sequencing; frameworks hold sequencing errors. In a few lines:
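Nanobodies came from a synthetic yeast display library in Saccharomyces cerevisiae BJ5465, induced with galactose for 36–48 hours and stained for 1 hour at 4 °C with 10% biotinylated, detergent-solubilized Sf9 membrane reagent. Cells were enriched on streptavidin microbeads and then FACS-sorted, with low and high (top ~1%) gates set on anti-HA fluorescence for expression and streptavidin fluorescence for reagent binding. Each polyreactivity label reflects the gate a clone came from. Genes were amplified by colony PCR, sequenced by MiSeq 2 × 250 and filtered by CDR length.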
Regarding “QVQLVESGGGLVQAGGSLRLSCAASGRTFYNNAMGWYRQAPGKERELVAAISQRTGRTYYADSVKGRFTISRDNAKNTVYLQMNSLKPEDTAVYYCNKVAYYSRRMDYWGQGTQVTVSS”, the “polyreactivity (PSR sort gate)” value is recorded as “high polyreactivity”.
For “QVQLVESGGGLVQAGGSLRLSCAASGRTFYNYAMGWYRQAPGKERELVAAITRGGSTYYADSVKGRFTISRDNAKNTVYLQMNSLKPEDTAVYYCNAVFPYEHEEYDYWGQGTQVTVSS” the value was “high polyreactivity”; for “QVQLVESGGGLVQAGGSLRLSCAASGRTFYNYAMGWYRQAPGKERELVAAITRGGSTYYADSVKGRFTISRDNAQNTVYLQMNSLKPEDTAVYYCNAKYIKGRDWGQGTQVTVSS”, “high polyreactivity”.
Take “QVQLVESGGGLVQAGGSLRLSCAASGRTFYNYAMGWYRQAPGKERELVATITGRGGRTFYAHSVKGRFTISRDNAKNTVYLQMNSLTPEDTAVYYCAAYGSASPYYTLYVEHDYWGQGTQVTVSS”: the “polyreactivity (PSR sort gate)” value is recorded as “low polyreactivity”.
For “QVQLVESGGGLVQAGGSLRLSCAASGRTFYPNAMGWYRQAPGKEREFVARISDSGGYTYYADSVKGRFTISRDNAKNTVYLQMNSLKPEDTAVYYCAADYGDPRVNEYDYWGQGTQVTVSS” the value was “low polyreactivity”; for “QVQLVESGGGLVQAGGSLRLSCAASGRTFYPNAMGWYRQAPGKERELVAAISYSGGSTYYADSVKGRFTISRDNAKNTVYLQMNSLKPEDTAVYYCAAEFSLDKRDYWGQGTQVTVSS”, “low polyreactivity”.
For “QVQLVESGGGLVQAGGSLRLSCAASGRTFYPNAMGWYRQAPRKERELVADITYSGASTYYADSVKGRFTISRDNAKNSVFLQMNSLKPEDTAVYYCNADESGVLVYVPYDYLGQGTQVTVSS” the value was “low polyreactivity”; for “QVQLVESGGGLVQAGGSLRLSCAASGRTFYPNVMGWYRQAPGKERELVAAISISGGSTRYADSVKGRFTISRDNAKNTVYLQMNSLKPEDTAVYYCAAGYIYWYYSYDYWGQGTQVTVSS”, “high polyreactivity”; for “QVQLVESGGGLVQAGGSLRLSCAASGRTFYPYAMGWYIQAPGKEREFVATITWSGTTTYYADSVKGSFTISRDNAKNTFYLQMNSLKPVDTAVYYCAADVWEVVTPYGTIDDDYWGQGTQVTVSS”, “high polyreactivity”.
For “QVQLVESGGGLVQAGGSLRLSCAASGRTFYPYAMGWYRPAPGKERELVAAIRWSGGSTYYADSVKGRFTISRDNAKNTVYLQMNSLKPEDTAVYYCNADWKSYRGPKFDYWGQGTQVTVSS” the value was “low polyreactivity”; for “QVQLVESGGGLVQAGGSLRLSCAASGRTFYPYAMGWYRQAPGKEREFVAAIRWRGGSTRYADSVKGRFTISRDNAKNTVYLQMNSLKPEDTAVYYCAADLRLGLNYYYWGQGTQVTVSS”, “high polyreactivity”; for “QVQLVESGGGLVQAGGSLRLSCAASGRTFYPYAMGWYRQAPGKERELVARISASGGSTYYADSVKGRFTISRDNAKNTVYLQMNSLKTEDTAVYYCARESFWRTLMDYWGQGTQVTVSS”, “high polyreactivity”.
On to “QVQLVESGGGLVQAGGSLRLSCAASGRTFYPYAMGWYRQAPGKERELVATITWSGTTTYYADSVKGRFTISRDNAKNIVYLQMNSLKPEDTAVYYCAADVWEVVTPYGTIDDDYWGQGTQVTVSS”, for which the “polyreactivity (PSR sort gate)” value is reported as “high polyreactivity”.
As to “QVQLVESGGGLVQAGGSLRLSCAASGRTFYPYAMGWYRQEPGKVRELVARISSGGNTKYADSVKGRFTISRDNAKNTVYLQMNSLKPEDTAVYYCNAAHYDYVAWKRFNYWGQGTQVTVSS”, the “polyreactivity (PSR sort gate)” value was “high polyreactivity”.
For “QVQLVESGGGLVQAGGSLRLSCAASGRTFYPYVMGWYRQAPGKEREFVAAISGTGGTTYYADSVKGRFTISRDNAKTTVYLQMNSLKPEDTAVYYCNRRIPYTSYSYGYWGQGTQVTVSS” the value was “high polyreactivity”; for “QVQLVESGGGLVQAGGSLRLSCAASGRTFYRNAMGWYRQAPGKDRELVAAISSGGSTTYADSVKGRFTISRDNAKNTVFFQMNSLKPEATAVYYCAARSHAGSVSPRLKEYDYWGQGTLVTVSS”, “low polyreactivity”.
As for “QVQLVESGGGLVQAGGSLRLSCAASGRTFYRNAMGWYRQAPGKEREFVAVISVSGGSTYYADSVKGRFTISRDNAKNTVYLQMNSLKPEDTAVSYCAADDYYLAGDYWGQGTQVTVSS”, the entry is “low polyreactivity”.
For the sequence “QVQLVESGGGLVQAGGSLRLSCAASGRTFYRNAMGWYRQAPGKERELVARINDGAGTYYADSVKGRFTISRDNAKNTVYLQMNSLKPEDTAVYYCADDTWGTPTPFVHYPEFEHWGQGTQVTVSS”, the “polyreactivity (PSR sort gate)” value is “low polyreactivity”.
“QVQLVESGGGLVQAGGSLRLSCAASGRTFYRNAMGWYRQAPGKERELVARITSGGSTNYADSVKGRFTISRDNAKNTVYLQMNSLKPEDTAVYYCAAVSRYYPYGYWGQGTQVNVSS”: the “polyreactivity (PSR sort gate)” value is on record as “high polyreactivity”.
As for “QVQLVESGGGLVQAGGSLRLSCAASGRTFYRNTMGWYRQAPGKERELVAAITSSGGSTYYADSVKGRFTISRDNAKNTVYLQMNSLKPEDTAVYYCAAPTWQKVVNPGGYYWGQGTQVTVSS”, the entry is “high polyreactivity”.
As for “QVQLVESGGGLVQAGGSLRLSCAASGRTFYRNVMGWYRQAPGKERELVAAISSRGGSTYYADSVKGRFTISRDNAKNTVYLQMNSLKPEDTAVYYCAAPRASGYYWGQGTQVTVSS”, the entry is “high polyreactivity”; as for “QVQLVESGGGLVQAGGSLRLSCAASGRTFYRNVMGWYRQAPGKERELVAAISWSGGRTYYADSVKGRFTISRDNAKNTVYLQMNSLKPEDTAVYYCARYDRGGRHYYYWGQGTQVTVSS”, “high polyreactivity”; as for “QVQLVESGGGLVQAGGSLRLSCAASGRTFYRYAMGWYRQAPGKERELVAAIRWSGGSTYYADSVKGRFTISRDNAKNTVYLQMNSLKPEDTAVYYCAKDTFRGYSPVKYDFWGQGTQVTVSS”, “low polyreactivity”.
Consider “QVQLVESGGGLVQAGGSLRLSCAASGRTFYRYAMGWYRQAPGKERELVAAISRSGTTYYADSVKGRFTISRDNAKNTVYLQMNSLKPEDTAVYFCAAKPAGRQRGGDYWGQGTQVTVSS”, for which the “polyreactivity (PSR sort gate)” value is “high polyreactivity”.
For “QVQLVESGGGLVQAGGSLRLSCAASGRTFYRYAMGWYRQAPGKERELVAAITRRGDSTSYADSVKGRFTNSRDNAKNTVYLQMNSLKPEDTADYYCATLVQGSVYGLYGGGYWGQGTQVTVSS” the value was “low polyreactivity”; for “QVQLVESGGGLVQAGGSLRLSCAASGRTFYRYAMGWYRQAPGKERELVAAITRRSGNTYYADSVKGRFTISRDNAKNTVYLQMNSLKPEDTAVYYCAADPETWSPHYESLGYYWGQGTQVTVSS”, “high polyreactivity”.
For “QVQLVESGGGLVQAGGSLRLSCAASGRTFYRYGMGWYRQAPGKEREFVAAITRSGDSTYADSVKGRFTISRDNAKNTVYLQMNSLKPEDTAVYYCAKVFLRQYAYRYYYWGQGTQVTVSS” the value was “high polyreactivity”; for “QVQLVESGGGLVQAGGSLRLSCAASGRTFYSNAMGWNRQAPGKERELVATITLSGGSTDYADSVKGRFTISRDNAKNTVYLQMNSLKPEDTAVYYCNADTDVHLIMGYWGQVTQVTVSS”, “low polyreactivity”.
As for “QVQLVESGGGLVQAGGSLRLSCAASGRTFYSNAMGWYRQAPGKERELVAAISSSGTSTRYADSVKGRFTISRDNAKNTVYLQMNSLKPEDTAVYYCAAVGWYHDYYWGQGTQVTVSS”, the entry is “high polyreactivity”; as for “QVQLVESGGGLVQAGGSLRLSCAASGRTFYSNAMGWYRQAPGKERELVAAITSTDDSTYYADSVKGRFTISRDNAKNTVYLPMNSLKPEDTAVYYCAAESGYPVYTYVSSGDYWGQGTQVTVSS”, “low polyreactivity”.
With “QVQLVESGGGLVQAGGSLRLSCAASGRTFYSNAMGWYRQAPGKERELVAGISKRGTITYYADSVKGRFTISRDNAKNTVYLQMNSLKPEDTAVYYCAVGRPSGWSYYTGGDYWGQGTQVTVSS”, the “polyreactivity (PSR sort gate)” value is given as “high polyreactivity”.
For the sequence “QVQLVESGGGLVQAGGSLRLSCAASGRTFYSNAMGWYRQAPGKERELVAVIRWNGGSTYADSVKGRFTISRDNAKNTVYLQMNSLKPEDTAVYYCAVTRYHSPPRYYYWGQGTQVTVSS”, the “polyreactivity (PSR sort gate)” value is “low polyreactivity”.
As for “QVQLVESGGGLVQAGGSLRLSCAASGRTFYSNVMGWYRQAPGKERELVAAISKSGGRTYYADSVKGRFTISRDNAKNTVYLQMNSLKPEDTAVYYCATDHGRYHGRYDYWGQGTQVTVSS”, the entry is “high polyreactivity”; as for “QVQLVESGGGLVQAGGSLRLSCAASGRTFYSYAIGWYRPAPGKERELVASITRSGTRTYYADSVKGRFTISRDNAKNTVYLQMNSLKPEDSAVYYCAARYFPLGGYSWGQGTQVSVSS”, “high polyreactivity”; as for “QVQLVESGGGLVQAGGSLRLSCAASGRTFYSYAMGWYRPAPGKERELVAAISRRGGSTYYADSVKGRFTISRDNAKNTVYLQMNSLKPEDTAVYYCAKGGGRVGQPGYDYWGQGTQVTVSS”, “high polyreactivity”.
As for “QVQLVESGGGLVQAGGSLRLSCAASGRTFYSYAMGWYRPAPGQERELVARITWSGGTYYADSVKGRFTISRDNAKTTVYLQMNSLKPEDTAVYYCNKYRPYGRIYHLAYGRDYWGQGTQVTVSS”, the entry is “high polyreactivity”.
For “QVQLVESGGGLVQAGGSLRLSCAASGRTFYSYAMGWYRQAPGKERDLVASITRAGSTYYADSVKGRFTISRDNAKNTVYLQMNSLKPEDTAVYYCAATYRSDRRYGSHYRVDYWGQGTQVTVSS” the value was “high polyreactivity”; for “QVQLVESGGGLVQAGGSLRLSCAASGRTFYSYAMGWYRQAPGKERELVAAISSSSGRTYYADSVKGRFTISRDNAKNTVYLQMNSLKPEDTGVYYCNRAGGYRTTFYSWGQGTQVTVSS”, “high polyreactivity”; for “QVQLVESGGGLVQAGGSLRLSCAASGRTFYSYAMGWYRQAPGKERELVAAISYTGASTFYADSVKGRFTISRDKSKNTVYLQMNSLKPEDTAVYYCADRKVRFGVDYWGQGTQVTVSS”, “high polyreactivity”.
Regarding “QVQLVESGGGLVQAGGSLRLSCAASGRTFYSYAMGWYRQAPGKERELVAAISYTGASTFYADSVKGRFTISRDNAKNTVYLQMNSLKPEDTAVYYCAGRKVRFGVDYWGQGTQVTVSS”, the “polyreactivity (PSR sort gate)” value was “high polyreactivity”.
As for “QVQLVESGGGLVQAGGSLRLSCAASGRTFYSYAMGWYRQAPGKERELVASISSGGGTNYADSVKGRFTISRDNAKNTVYLQMNSLKPEDTAVYYCAAKYWFFYPYDYWGQGTQVTVSS”, the entry is “low polyreactivity”.
